# Test results from publication PMC9972007.
# Where “and” joins values, the source holds several entries; their conditions need not be identical. Equal values may be shown once.
# Target: Optineurin (OPTN) (Homo sapiens, UniProt Q96CV9 1-577)
# Assay: tryptophan fluorescence quenching titration
# Chain of Optineurin (OPTN) (Q96CV9 whole entry): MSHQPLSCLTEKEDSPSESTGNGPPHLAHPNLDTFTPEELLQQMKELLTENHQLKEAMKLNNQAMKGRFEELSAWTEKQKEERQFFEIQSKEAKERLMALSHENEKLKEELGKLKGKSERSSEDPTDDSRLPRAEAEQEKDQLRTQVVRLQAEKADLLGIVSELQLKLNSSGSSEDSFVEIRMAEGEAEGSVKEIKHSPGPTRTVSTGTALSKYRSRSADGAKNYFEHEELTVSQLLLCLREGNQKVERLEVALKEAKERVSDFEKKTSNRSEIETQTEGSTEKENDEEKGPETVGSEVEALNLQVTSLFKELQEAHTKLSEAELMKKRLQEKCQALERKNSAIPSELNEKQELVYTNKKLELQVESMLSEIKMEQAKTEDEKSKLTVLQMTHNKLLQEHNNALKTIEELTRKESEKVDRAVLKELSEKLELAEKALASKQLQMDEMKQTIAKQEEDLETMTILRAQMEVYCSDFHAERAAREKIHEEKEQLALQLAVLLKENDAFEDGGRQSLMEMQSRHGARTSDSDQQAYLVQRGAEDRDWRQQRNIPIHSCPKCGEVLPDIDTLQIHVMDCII
binder,measurement,value
UGUGUGUGUGUGUGUGUGUGUGUG (ssRNA) [UG-repeat RNA 24-mer],Kd,4.61 µM and 4.49 µM
